Measured values as given in paper PMC10777347, “De Novo Single-Stranded RNA-Binding Peptides Discovered by Codon-Restricted mRNA Display” (Biomacromolecules, 2023).

Tests used:
[1] = system: CP1 (synthetic (de novo)); assay: spectral shift; conditions: Spectral shift: 10 mM Tris-HCl pH 8.0, 0.05% Tween 20, no added salt, 25 C, Cy5 oligo (20 nM stock), 30 min at RT; MST with oncogenic RNAs in human plasma-like …
[2] = system: AP2 QNQ to TNH (synthetic (de novo)); assay: spectral shift; conditions: Spectral shift: 10 mM Tris-HCl pH 8.0, 0.05% Tween 20, no added salt, 25 C, Cy5 oligo (20 nM stock), 30 min at RT; MST with oncogenic RNAs in human plasma-like …
[3] = system: CP2 (synthetic (de novo)); assay: spectral shift; conditions: Spectral shift: 10 mM Tris-HCl pH 8.0, 0.05% Tween 20, no added salt, 25 C, Cy5 oligo (20 nM stock), 30 min at RT; MST with oncogenic RNAs in human plasma-like …
[4] = system: AP2-short (synthetic (de novo)); assay: spectral shift; conditions: Spectral shift: 10 mM Tris-HCl pH 8.0, 0.05% Tween 20, no added salt, 25 C, Cy5 oligo (20 nM stock), 30 min at RT; MST with oncogenic RNAs in human plasma-like …
[5] = system: AP2 (synthetic (de novo)); assay: spectral shift; conditions: Spectral shift: 10 mM Tris-HCl pH 8.0, 0.05% Tween 20, no added salt, 25 C, Cy5 oligo (20 nM stock), 30 min at RT; MST with oncogenic RNAs in human plasma-like …
[6] = system: AP2-short Q to S (synthetic (de novo)); assay: spectral shift; conditions: Spectral shift: 10 mM Tris-HCl pH 8.0, 0.05% Tween 20, no added salt, 25 C, Cy5 oligo (20 nM stock), 30 min at RT; MST with oncogenic RNAs in human plasma-like …
[7] = system: CP1 (synthetic (de novo)); assay: MST; conditions: Spectral shift: 10 mM Tris-HCl pH 8.0, 0.05% Tween 20, no added salt, 25 C, Cy5 oligo (20 nM stock), 30 min at RT; MST with oncogenic RNAs in human plasma-like …
hnRNPK = hnRNPK (UniProt P61978); assay: fluorescence anisotropy; conditions: Spectral shift: 10 mM Tris-HCl pH 8.0, 0.05% Tween 20, no added salt, 25 C, Cy5 oligo (20 nM stock), 30 min at RT; MST with oncogenic RNAs in human plasma-like …; cited from earlier work
MYU lncRNA = conditions: fluorescence anisotropy binding assay, previous study; read-out: KD^hnRNPK, MYU lncRNA; cited from earlier work
Experimental: Figure 7 Assessment of the affinity of poly(C) RNA-binding peptides to cytosine-rich oncogenic RNA motifs. […] The KD^CP1s were measured using microscale thermophoresis in a human plasma-like medium. Cytosines predicted to be single-stranded within RNA ligands are highlighted in red. Cytosine-to-adenine substitution is highlighted in blue. The predicted secondary structures are available in Figure S11. The complete thermodynamic plots are shown in Figure S12. *The KD^hnRNPKs are the dissociation ...

Cdk6 3′UTR RNA = conditions: fluorescence anisotropy binding assay, previous study; read-out: KD^hnRNPK, Cdk6 3′UTR RNA; cited from earlier work
Experimental: To evaluate the synthetic ssRNA-binding peptide’s affinity for biologically derived RNA targets, we have chosen two cytosine-rich RNA motifs from the oncogenic Cdk6 3′UTR RNA and MYU lncRNA. These motifs have previously been identified as targets of hnRNPK,[45] and they both consist of extended cytosine repeats (>4 nt) within a necessary single-stranded region for the progression of colon cancer cells. […] The KD^CP1s were measured using microscale thermophoresis in a human plasma-like medium. Cytosines predicted to be single-stranded within RNA ligands are highlighted in red. Cytosine-to-adenine substitution is highlighted in blue. The predicted secondary structures are available in Figure S11. The complete thermodynamic plots are shown in Figure S12. *The KD^hnRNPKs are the dissociation ...

CCCCCCCCCCCC [poly(C) DNA] gave a binding signal (fold weaker than poly(C) RNA) [1] of 7.

For CCCCCCCCCCCC [poly(C) RNA], the Kd [1] was 900 nM, the Kd [2] was 120000 nM and the Kd [3] was 1200 nM.

For poly(C) RNA / antisense DNA hybrid, the binding signal (fold weaker than poly(C) RNA) [1] was 6.

In the case of AAAAAAAAAAAA [poly(A) RNA], the Kd [4] is reported as 82000 nM, the binding signal (fold weaker than poly(C) RNA) [1] is reported as 4 and the Kd [5] is reported as 18800 nM. For the same substance, the Kd [6] was 115000 nM.

In the case of “GGUCCCCCGCCUCAUUCGCCCCUCUGCUCCC [Cdk6 3'UTR RNA motif]”, the Kd [7] is given as 103 nM and the Kd (hnRNPK) is given as 450 nM.

Work on AAAAAAAAAAAA [poly(A) DNA] yielded a binding signal (fold weaker than poly(A) RNA) [5] of 2.

In the case of “hnRNPK: endogenous RNA-binding protein with KH domain, binds cytosine-rich RNA motifs”, the Kd (MYU lncRNA) is listed as 70 ± 7 nM and the Kd (Cdk6 3′UTR RNA) is listed as 450 nM.

In the case of “GGCUCCCCCGACCUCUGUGCUCCCCUCCCCCGACCUCUGUGC [MYU lncRNA motif]”, the Kd [7] is reported as 107 nM.
